Experiment [1] concerns the target T1, Cry1Ab toxin (trypsinized 60 kD toxin) (Bacillus thuringiensis, UniProt P0A370 29-620, limits assumed, radioiodinated (125I, chloramine T) where used as labelled ligand).
T1 construct: domain: soluble trypsinized 60 kD toxin; also called Cry lAb
The experiment is described as follows: blot of E. coli lysate incubated with Cry1Ab toxin, then anti-toxin antiserum.

The target of experiment [2] is T1, Cry1Ab toxin (trypsinized 60 kD toxin). The experiment can be described thus: competition ligand blot, 125I-Cry1Ab with unlabeled Cry1Ab on the 32 kD protein, gamma counting.

B1: PBW-421 expressed protein (BT-R2 aa 1367-1496), 21 kD (receptor)
chain: LYTAGISTSDNINRELLTVRATHSENAQLTYTIEDGSMAVDSTLEAVKDSAFHLNAQTGVLILRIQPTASMQGMFEFNVIATDPDEKTDTAEVKVYLISSQNRVSFIFLNDVETVESNRDFIAETFSVGF
notes: also called 21 kD protein
Consider B1, for which the binding result in experiment [1] is “no binding”.

B2: PBW-866 expressed protein (BT-R2 aa 1210-1496), 32 kD (receptor)
chain: EEGKEFEVTIRATDGGTEPRSYSTDSTITVLFVPTLGDPIFQDNTYSVAFFEKEVGLTERFSLPHAEDPKNKLCTDDCHDIYYRIFGGVDYEPFDLDPVTNVIFLKSELDRETTATHVVQVAASNSPTGGGIPLPGSLLTVTVTVREADPRPVFEQRLYTAGISTSDNINRELLTVRATHSENAQLTYTIEDGSMAVDSTLEAVKDSAFHLNAQTGVLILRIQPTASMQGMFEFNVIATDPDEKTDTAEVKVYLISSQNRVSFIFLNDVETVESNRDFIAETFSVGF
notes: also called 32 kD protein
Consider B2, for which, in experiment [2], the Kd was approximately 17 nM.

The term Kd denotes the equilibrium constant for the complex coming apart. Higher therefore signals lower affinity.

For the origin of these results see patent US7094554 (University of Texas, dated 2006).
